Legend:
HeLa Kyoto [1] = assay: solubility in G1/S (NP-40 vs SDS abundance) (log2 ratio); higher = more soluble; settings: cell cycle stage: G1/S
HeLa Kyoto [2] = assay: melting temperature (median over replicates), in situ; higher = more thermally stable
HeLa Kyoto [3] = assay: solubility change mitosis vs G1/S (difference of NP-40 vs SDS log2 ratios) (log2 ratio difference); higher = more soluble in mitosis
HeLa Kyoto [4] = assay: thermal stability score vs G1/S (z-score of summed log2 fold changes over temperatures); higher = more thermally stable than in G1/S
[5] = cell cycle stage: early G1 (4.5 h after nocodazole release)
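For melting temperature (median over replicates), in situ in this document: HeLa Kyoto cells synchronized by double thymidine or nocodazole block, proteins quantified by TMT10plex mass spectrometry, three independent biological replicates.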
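For solubility change mitosis vs G1/S (difference of NP-40 vs SDS log2 ratios) in this document: synchronized HeLa Kyoto cells (double thymidine block for G1/S, nocodazole release for mitosis), protein amounts in NP-40 versus SDS lysates quantified by mass spectrometry, three biological replicates.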
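For solubility in G1/S (NP-40 vs SDS abundance) in this document: HeLa Kyoto cells arrested at G1/S by double thymidine block, proteins quantified by TMT10plex mass spectrometry in mild NP-40 versus SDS extracts, three biological replicates.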
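For thermal stability score vs G1/S (z-score of summed log2 fold changes over temperatures) in this document: synchronized HeLa Kyoto cells, proteins quantified by TMT10plex mass spectrometry, three biological replicates, mitosis taken 0.5 h after nocodazole release, G1/S directly after double thymidine block.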

Sequence	solubility in G1/S (log2) (HeLa Kyoto [1])	melting temperature (HeLa Kyoto [2]; cell cycle stage: G1/S) [°C]	melting temperature (HeLa Kyoto [2]; cell cycle stage: mitosis) [°C]	solubility change mitosis (log2) (HeLa Kyoto [3])	thermal stability score (HeLa Kyoto [4]; [5])	thermal stability score (HeLa Kyoto [4]; cell cycle stage: mitosis)
MMPMFLTVYLSNNEQHFTEVPVTPETICRDVVDLCKEPGESDCHLAEVWCGSERPVADNERMFDVLQRFGSQRNEVRFFLRHERPPGRDIVSGPRSQDPSLKRNGVKVPGEYRRKENGVNSPRMDLTLAELQEMASRQQQQIEAQQQLLATKEQRLKFLKQQDQRQQQQVAEQEKLKRLKEIAENQEAKLKKVRALKGHVEQKRLSNGKLVEEIEQMNNLFQQKQRELVLAVSKVEELTRQLEMLKNGRIDSHHDNQSAVAELDRLYKELQLRNKLNQEQNAKLQQQRECLNKRNSEVAVMDKRVNELRDRLWKKKAALQQKENLPVSSDGNLPQQAASAPSRVAAVGPYIQSSTMPRMPSRPELLVKPALPDGSLVIQASEGPMKIQTLPNMRSGAASQTKGSKIHPVGPDWSPSNADLFPSQGSASVPQSTGNALDQVDDGEVPLREKEKKVRPFSMFDAVDQSNAPPSFGTLRKNQSSEDILRDAQVANKNVAKVPPPVPTKPKQINLPYFGQTNQPPSDIKPDGSSQQLSTVVPSMGTKPKPAGQQPRVLLSPSIPSVGQDQTLSPGSKQESPPAAAVRPFTPQPSKDTLLPPFRKPQTVAASSIYSMYTQQQAPGKNFQQAVQSALTKTHTRGPHFSSVYGKPVIAAAQNQQQHPENIYSNSQGKPGSPEPETEPVSSVQENHENERIPRPLSPTKLLPFLSNPYRNQSDADLEALRKKLSNAPRPLKKRSSITEPEGPNGPNIQKLLYQRTTIAAMETISVPSYPSKSASVTASSESPVEIQNPYLHVEPEKEVVSLVPESLSPEDVGNASTENSDMPAPSPGLDYEPEGVPDNSPNLQNNPEEPNPEAPHVLDVYLEEYPPYPPPPYPSGEPEGPGEDSVSMRPPEITGQVSLPPGKRTNLRKTGSERIAHGMRVKFNPLALLLDSSLEGEFDLVQRIIYEVDDPSLPNDEGITALHNAVCAGHTEIVKFLVQFGVNVNAADSDGWTPLHCAASCNNVQVCKFLVESGAAVFAMTYSDMQTAADKCEEMEEGYTQCSQFLYGVQEKMGIMNKGVIYALWDYEPQNDDELPMKEGDCMTIIHREDEDEIEWWWARLNDKEGYVPRNLLGLYPRIKPRQRSLA [TP53BP2]	0.0669	48.9	48.5	-0.063	0.713	1.28
MMPTPVILLKEGTDSSQGIPQLVSNISACQVIAEAVRTTLGPRGMDKLIVDGRGKATISNDGATILKLLDVVHPAAKTLVDIAKSQDAEVGDGTTSVTLLAAEFLKQVKPYVEEGLHPQIIIRAFRTATQLAVNKIKEIAVTVKKADKVEQRKLLEKCAMTALSSKLISQQKAFFAKMVVDAVMMLDDLLQLKMIGIKKVQGGALEDSQLVAGVAFKKTFSYAGFEMQPKKYHNPKIALLNVELELKAEKDNAEIRVHTVEDYQAIVDAEWNILYDKLEKIHHSGAKVVLSKLPIGDVATQYFADRDMFCAGRVPEEDLKRTMMACGGSIQTSVNALSADVLGRCQVFEETQIGGERYNFFTGCPKAKTCTFILRGGAEQFMEETERSLHDAIMIVRRAIKNDSVVAGGGAIEMELSKYLRDYSRTIPGKQQLLIGAYAKALEIIPRQLCDNAGFDATNILNKLRARHAQGGTWYGVDINNEDIADNFEAFVWEPAMVRINALTAASEAACLIVSVDETIKNPRSTVDAPTAAGRGRGRGRPH [CCT7]	0.162	54.1	54.2	-0.0678	-0.684	-1.22
MNAEPERKFGVVVVGVGRAGSVRMRDLRNPHPSSAFLNLIGFVSRRELGSIDGVQQISLEDALSSQEVEVAYICSESSSHEDYIRQFLNAGKHVLVEYPMTLSLAAAQELWELAEQKGKVLHEEHVELLMEEFAFLKKEVVGKDLLKGSLLFTAGPLEEERFGFPAFSGISRLTWLVSLFGELSLVSATLEERKEDQYMKMTVCLETEKKSPLSWIEEKGPGLKRNRYLSFHFKSGSLENVPNVGVNKNIFLKDQNIFVQKLLGQFSEKELAAEKKRILHCLGLAEEIQKYCCSRK [BLVRA]	0.108	54.9	55	-0.0957	-0.499	-0.397
MNAGPGCEPCTKRPRWGAATTSPAASDARSFPSRQRRVLDPKDAHVQFRVPPSSPACVPGRAGQHRGSATSLVFKQKTITSWMDTKGIKTAESESLDSKENNNTRIESMMSSVQKDNFYQHNVEKLENVSQLSLDKSPTEKSTQYLNQHQTAAMCKWQNEGKHTEQLLESEPQTVTLVPEQFSNANIDRSPQNDDHSDTDSEENRDNQQFLTTVKLANAKQTTEDEQAREAKSHQKCSKSCDPGEDCASCQQDEIDVVPESPLSDVGSEDVGTGPKNDNKLTRQESCLGNSPPFEKESEPESPMDVDNSKNSCQDSEADEETSPGFDEQEDGSSSQTANKPSRFQARDADIEFRKRYSTKGGEVRLHFQFEGGESRTGMNDLNAKLPGNISSLNVECRNSKQHGKKDSKITDHFMRLPKAEDRRKEQWETKHQRTERKIPKYVPPHLSPDKKWLGTPIEEMRRMPRCGIRLPLLRPSANHTVTIRVDLLRAGEVPKPFPTHYKDLWDNKHVKMPCSEQNLYPVEDENGERTAGSRWELIQTALLNKFTRPQNLKDAILKYNVAYSKKWDFTALIDFWDKVLEEAEAQHLYQSILPDMVKIALCLPNICTQPIPLLKQKMNHSITMSQEQIASLLANAFFCTFPRRNAKMKSEYSSYPDINFNRLFEGRSSRKPEKLKTLFCYFRRVTEKKPTGLVTFTRQSLEDFPEWERCEKPLTRLHVTYEGTIEENGQGMLQVDFANRFVGGGVTSAGLVQEEIRFLINPELIISRLFTEVLDHNECLIITGTEQYSEYTGYAETYRWSRSHEDGSERDDWQRRCTEIVAIDALHFRRYLDQFVPEKMRRELNKAYCGFLRPGVSSENLSAVATGNWGCGAFGGDARLKALIQILAAAAAERDVVYFTFGDSELMRDIYSMHIFLTERKLTVGDVYKLLLRYYNEECRNCSTPGPDIKLYPFIYHAVESCAETADHSGQRTGT [PARG]	-0.159	50.8	50	-0.0937	-0.493	-0.304
MNGRVDYLVTEEEINLTRGPSGLGFNIVGGTDQQYVSNDSGIYVSRIKENGAAALDGRLQEGDKILSVNGQDLKNLLHQDAVDLFRNAGYAVSLRVQHRLQVQNGPIGHRGEGDPSGIPIFMVLVPVFALTMVAAWAFMRYRQQL [SYNJ2BP]	0.0992	51.6	51.6	-0.0614	1.82	1.39
MNHDFQALALESRGMGELLPTKKFWEPDDSTKDGQKGIFLGDDEWRETAWGASHHSMSQPIMVQRRSGQGFHGNSEVNAILSPRSESGGLGVSMVEYVLSSSPADKLDSRFRKGNFGTRDAETDGPEKGDQKGKASPFEEDQNRDLKQGDDDDSKINGRGLPNGMDADCKDFNRTPGSRQASPTEVVERLGPNTNPSEGLGPLPNPTANKPLVEEFSNPETQNLDAMEQVGLESLQFDYPGNQVPMDSSGATVGLFDYNSQQQLFQRTNALTVQQLTAAQQQQYALAAAQQPHIAGVFSAGLAPAAFVPNPYIISAAPPGTDPYTAAGLAAAATLAGPAVVPPQYYGVPWGVYPANLFQQQAAAAANNTASQQAASQAQPGQQQVLRAGAGQRPLTPNQGQQGQQAESLAAAAAANPTLAFGQGLATGMPGYQVLAPTAYYDQTGALVVGPGARTGLGAPVRLMAPTPVLISSAAAQAAAAAAAGGTASSLTGSTNGLFRPIGTQPPQQQQQQPSTNLQSNSFYGSSSLTNSSQSSSLFSHGPGQPGSTSLGFGSGNSLGAAIGSALSGFGSSVGSSASSSATRRESLSTSSDLYKRSSSSLAPIGQPFYNSLGFSSSPSPIGMPLPSQTPGHSLTPPPSLSSHGSSSSLHLGGLTNGSGRYISAAPGAEAKYRSASSTSSLFSSSSQLFPPSRLRYNRSDIMPSGRSRLLEDFRNNRFPNLQLRDLIGHIVEFSQDQHGSRFIQQKLERATPAERQMVFNEILQAAYQLMTDVFGNYVIQKFFEFGSLDQKLALATRIRGHVLPLALQMYGCRVIQKALESISSDQQVISEMVKELDGHVLKCVKDQNGNHVVQKCIECVQPQSLQFIIDAFKGQVFVLSTHPYGCRVIQRILEHCTAEQTLPILEELHQHTEQLVQDQYGNYVIQHVLEHGRPEDKSKIVSEIRGKVLALSQHKFASNVVEKCVTHASRAERALLIDEVCCQNDGPHSALYTMMKDQYANYVVQKMIDMAEPAQRKIIMHKIRPHITTLRKYTYGKHILAKLEKYYLKNSPDLGPIGGPPNGML [PUM2]	0.446	54	50.2	-0.11	1.8	1.49

— the supplement of paper PMC5998384
